Substitutions are numbered along the chain they refer to.
B1: Z040 (BRA12_81) (antibody, V domains shown)
VH: EVQLLESGGGLVQPGGSLRLSCAASGFTFSTYAMSWVRQAPGKGLEWVSAISGSGRSTYYADSVKGRFTISRDNSKNTLYLQMNSLRGEDTAVYYCAKSSGGHNWNYVDYYYGMDVWGQGTTVTVSS
VL: DIQLTQSPSFLSASVGDRVTITCRASQGISSYLAWYQQKPGKAPKLLIYAASTLQSGVPSRFSGSGSGTEFTLTISSLQPEDFATYYCQQLNSYPVTFGPGTKVDIK
B2: Z044 (BRA138_46) (antibody, V domains shown)
VH: QVQLVQSGAEVKKPGASVKVSCKASGYTFTSTYIHWVRQAPGQGLEWMGIINPSSSNTNYAQKFQGRVTMTRDTSTSTVYMELSSLRSEDTAVYYCARDFGGYSSSSVSDAFDIWGQGTMVTVSS
VL: QSALTQPASVSGSPGQSITISCTGTSSDVGSFNLVSWYQQHPGKAPKLIIYEVSKRPSGVSNRFSGSKSGNTASLTISGLQAEDEVHYYCCSYAGSSRFVFGTGTKVTVL
B3: Z054 (BRA138_94) (antibody, V domains shown)
VH: QLQLQESGPRLVKPSETLFLTCTVSGDSISSSSYFWGWIRQPPGKGLEWIGSISYSGSTYYNPSLKSRVTISVDTSKNQFSLKLSSVTAADTVVYYCAKHLYSSSWNIGSSFDSWGPGTLVTVSS
VL: EIVLTQSPATLSLSPGERATLSCRASQSVSIYLAWYQQKPGQAPRLLIYDASSRATGIPARFSGSGSGTDFTLTISSLEPEDFAVYYCQQRSNWPVYTFGQGTKVEIK
B4: Z004 (MEX18_89) (antibody, V domains shown)
VH: EVQLLESGGGLVQPGGSLRLTCATSGFTFRDYAMSWVRQAPGKGLEWVSSYSGIDDSTYYADSVKGRFTISRDNSKSTLSLHMNSLRAEDSALYFCAKDRGPRGVGELFDSWGQGTLVTVSS
VL: DIQMTQSPSTLSASVGDRVTITCRASQSISKWLAWYQQKPGKAPKLLIYTTSTLKSGVPSRFSGSGSGTEFTLTISSLQPDDFATYYCQHFYSVPWTFGQGTKVEIK
notes: also called biotin-Z004 (biotinylated form)
B5: Z028 (MEX84_p4-53) (antibody, V domains shown)
VH: EVQLLESGGGLVQPGGSLRLSCAASGFTFSAYAMSWVRQAPGKGLEWVSSINGHSDSTYFADSVKGRFTISRDNSKNTLYLQMNSLRAEDTALYYCAKDRLREGIGELFHSWGQGTLVTVSS
VL: B4 VL with V15I, S30T, K31P, L46F, T50Q, T53I, K55E, F91Y, Y92H, V94Y
B6: Z001 (MEX18_21) (antibody, V domains shown)
VH: EVQLLESGGGLVQPGGSRRLSCATSGFSFDTYAMSWLRQAPGKGLEWVSSFSGLDDSTYYADSVKGRFTISRDNSKNTLYLQMNSLRAEDTAIYYCAKDRGPRGIGELFDFWGQGTLVTVSS
VL: B4 VL with K31R, T50K, G57E, Y92H
B7: Z006 (MEX105_42) (antibody, V domains shown)
VH: EVQLLESGGGLVQPGGSLRLSCAASGFTFKNYAMAWVRQAPGKGLEWVSLLYNSEESTYYADSVKGRFTISRDNSKNTLFLQMNRLRVEDTAVYFCVRDRSNGWSSINLWGRGTLVTVSS
VL: DIQMTQSPSTLSASVGDRVTMTCRASQTISGWLAWYQQKPGKAPKLLIYQASRLESGIPSRFSGSGSGTEFTLTISSLQPDDVATYYCQQYSTFWTFGLGTKVEIK
B8: Z010 (MEX105_88) (antibody, V domains shown)
VH: EVQLLESGGGLVQPGGSLRLSCAASGFTFSNYAMAWVRQAPGKGLEWVSLIYSGDDSTYYADFVKGRFTISRHNSKNTLSLQMNSLRAEDTAIYYCVKDRGTGWSSIVHWGQGTLVTVSS
VL: B7 VL with M21I, G31N, R53S, I58V, V83F, F94Y, L99Q
B9: Z031 (BRA112_46) (antibody, V domains shown)
VH: EVQLLESGGGLVQPGGSLRLSCVASGFTFGSYGMAWVRQAPGKGLEWISSISSIDPSTYYADSVKGRFTVSRDNSENTLYLHMSSLKVEDTAVYFCAKDRLNGGFGELFASWGQGTLVTVSS
VL: DIQMTQSPSTLSASVGDSVTITCRASQSISSWLAWYQQKPGKAPKFLIHKASSLESGIPSRFSGSGSGTEFTLTINNLQPDDFATYYCQHYHSYPWTFGQGTKVEIK
B10: Z035 (BRA112_71) (antibody, V domains shown)
VH: EVQLLESGGGLIQPGGSLRLSCAASGFTFSSYAMSWVRQAPGKGLEWVSGISGSGGASDNGASRYYADSVKGRFSISRDNSKNTVYLQMNSLRAEDTAVYYCAKDRLSGGFGELFQKWGQGTLVTVSS
VL: DIQMTQSPSTLAASVGDRVTITCRASQNINSWLAWYQQKPGKAPKFLIYKASTLESGAPSRFSGSGSGTEFTLTISSLQPDDFATYYCQHYYSYPYTFGQGTKVEIK
B11: Z038 (BRA12_2) (antibody, V domains shown)
VH: EVQLLESGGGLVQPGGSLRLSCEASGFTFSNYAMNWVRQAPGKGLEWVSTLGATDNSGDSTYYVESAKGRFTISRDNSKNTLYLQMNSLRVEDTAVYFCAKDRTGNIGAGTGYFDKWGQGTLVTVSS
VL: DIQMTQSPSTLSASVGDRVTITCRASHRISGWLAWYQQKPGKAPKLLIYQASGLESGVPSRFSGSGYGTEFTLTISSLQADDFATYYCQQYNNYPWTFGQGTKVEIK
notes: also called BRA12_02
B12: Z021 (MEX84_p4-23) (antibody, V domains shown)
VH: QVQLQESGPGLVKPSETLSLTCTVSGGSIDTYYWSWIRQTPGKGLEWIGCFYYSVDNHFNPSLESRVTISVDTSKNQFSLKMTSMTASDTAVYYCARNQPGGRAFDYWGPGTLVTVSS
VL: EIVLTQSPATLSLSPGQRATLSCRASQSVSNYFAWYQQKPGQAPRLLIYDTSKRATGTPARFSGSGSGTDFTLTISSLEPEDFAVYYCQERNNWPLTWTFGLGTKVEIK
B13: Z032 (BRA112_24) (antibody, V domains shown)
VH: EVQLLESGGRLVQPGGSLTLSCAASGFPFSTYAMSWLRQAPGKGLEWVSGITGDSGSTYYAASVKGRFTISRDNSKNTLYLQMNSLTADDTAVYYCAKDRLHSGLGELFSYWGQGTLVTVSS
VL: B10 VL with A12S, T20N, N28S, S31Q, I48M, S56T, A58V, Y92F, Y96W

These binders were tested against T1, DENV1 EDIII, polyhistidine-AviTag, made in HEK-293-6E cells (Dengue virus 1 (NC_001477)) (assay: ELISA on EDIII (Table A)).
T1 construct: also called EDIII of DENV1
T1 sequence (P17763 577-674, tags left off): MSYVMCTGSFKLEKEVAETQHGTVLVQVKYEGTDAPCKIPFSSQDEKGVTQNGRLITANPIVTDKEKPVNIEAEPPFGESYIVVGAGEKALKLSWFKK
B1: no binding.
B2: no binding.
B3: no binding.

These binders were tested against WNV EDIII, polyhistidine-AviTag (West Nile virus) (assay: ELISA on EDIII (Table A)).
B1: no binding.
B2: no binding.
B3: no binding.

These binders were tested against T2, DENV3 EDIII, polyhistidine-AviTag (Dengue virus 3, UniProt Q6YMS4 575-672) (assay: cross-reactivity ELISA on EDIII proteins).
T2 construct: domain: EDIII
B4: no binding (tested: 10 µg/ml).
B5: no binding (tested: 10 µg/ml).
B6: no binding (tested: 10 µg/ml).
B7: no binding (tested: 10 µg/ml).
B8: no binding (tested: 10 µg/ml).
B9: no binding (tested: 10 µg/ml).
B10: no binding (tested: 10 µg/ml).
B11: no binding (tested: 10 µg/ml).

The binders below were run against T3, DENV4 EDIII, polyhistidine-AviTag (Dengue virus 4, UniProt P09866 576-673) (assay: cross-reactivity ELISA on EDIII proteins).
T3 construct: domain: EDIII
B4: no binding (tested: 10 µg/ml).
B5: no binding (tested: 10 µg/ml).
B6: no binding (tested: 10 µg/ml).
B7: no binding (tested: 10 µg/ml).
B8: no binding (tested: 10 µg/ml).
B9: no binding (tested: 10 µg/ml).
B10: no binding (tested: 10 µg/ml).
B11: no binding (tested: 10 µg/ml).

Each binder was assayed against WNV EDIII, polyhistidine-AviTag (West Nile virus) (assay: cross-reactivity ELISA on EDIII proteins).
B4: no binding (tested: 10 µg/ml).
B5: no binding (tested: 10 µg/ml).
B6: no binding (tested: 10 µg/ml).
B7: no binding (tested: 10 µg/ml).
B8: no binding (tested: 10 µg/ml).
B9: no binding (tested: 10 µg/ml).
B10: no binding (tested: 10 µg/ml).
B11: no binding (tested: 10 µg/ml).

Each binder was assayed against ZIKV E protein (African strain MR766) on reporter viral particles (Zika virus, strain MR766, UniProt Q32ZE1 291-790) (assay: cell-based or functional assay).
Sequence of ZIKV E protein (African strain MR766) on reporter viral particles (Q32ZE1 291-790 limits assumed): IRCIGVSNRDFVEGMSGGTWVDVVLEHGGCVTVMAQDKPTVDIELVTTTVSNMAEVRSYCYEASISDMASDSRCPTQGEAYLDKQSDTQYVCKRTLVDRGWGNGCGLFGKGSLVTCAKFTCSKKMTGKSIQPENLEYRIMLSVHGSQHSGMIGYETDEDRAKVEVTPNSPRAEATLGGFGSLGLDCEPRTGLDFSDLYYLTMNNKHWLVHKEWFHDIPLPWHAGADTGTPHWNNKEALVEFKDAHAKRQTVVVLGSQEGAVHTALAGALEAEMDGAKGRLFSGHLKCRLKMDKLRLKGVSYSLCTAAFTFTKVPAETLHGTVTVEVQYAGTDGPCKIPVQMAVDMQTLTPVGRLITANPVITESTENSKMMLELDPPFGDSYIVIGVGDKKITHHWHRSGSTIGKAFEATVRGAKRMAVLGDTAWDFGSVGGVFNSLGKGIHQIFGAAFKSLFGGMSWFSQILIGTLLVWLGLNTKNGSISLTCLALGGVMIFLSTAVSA
In the case of B12, the “IC50, ZIKV RVPs” value is reported as 0.7 ng/mL.

The binders below were run against DENV1 E protein (strain PUO-359) on reporter viral particles or infectious virus (Dengue virus 1, strain PUO-359) (assay: cell-based or functional assay).
For B4, the “IC50, DENV1 luciferase RVPs” value was 1.6 ng/mL and the “IC50, flow cytometry using authentic DENV1” value was 16.4 ng/mL.
For B12, the “IC50, DENV1 neutralization (flow cytometry)” value was 10.1 ng/mL.

Each binder was assayed against ZIKV E protein on infectious virus, 2015 Puerto Rican PRVABC59 strain (Zika virus, strain PRVABC59) (assay: cell-based or functional assay).
With B4 the “IC50, plaque reduction neutralization test (PRNT)” value was 2.2 ng/mL.
For B12, the “IC50, plaque reduction neutralization assay (PRNT)” value was 4 ng/mL.

The binders below were run against T4, ZIKV envelope domain III ([..]), polyhistidine-AviTag, made in HEK-293-6E cells (Zika virus (KJ776791)) (assay: ELISA on ZIKV EDIII (Table A)).
T4 construct: also called ZEDIII; ZIKV EDIII
In the case of B13, the EC50 is reported as 19.5 ng/mL.

Source: patent US20220306729A1 (published 2022)
